Data published in patent US6984501.

Biological target: human Kv2.1 (human) (UniProt Q14721)
Assay: cell-based or functional assay

V0.5 of the activation voltage curve (Boltzmann fit of G/Gmax), whole-cell patch clamp on CHO cells: 10.8 mV
inactivation time constant of the outward current, whole-cell patch clamp on CHO cells: 7.17 ms
Substance: human Kv2.1 (from UniProt Q14721 1-858)
